Assay results published in article PMC13246001, “Membrane binding controls the ATPase cycle and localization of MinD in Bacillus subtilis” (eLife, 2026).

Key:
[1] = biological target: His-MinD (B. subtilis MinD, N-terminally His-tagged) (B. subtilis) (UniProt Q01464)
[2] = substrate: Nc1ncnc2c1ncn2[C@@H]1O[C@H](COP(=O)(O)OP(=O)(O)OP(=O)(O)O)[C@@H](O)[C@H]1O; test: EnzChek phosphate release assay; format: biochemical, Bacillus subtilis; settings: 10 µM MinD, E. coli total lipid liposomes 0.2 mg/ml, Mg2+, 37 °C, HEPES-KOH pH 7.2 protein/liposome buffer
[3] = biological target: the molecule itself; test: SEC; Superdex200 Increase 10/300 GL, 0.75 ml/min, buffer C (50 mM HEPES-KOH, 150 mM KCl, 10% glycerol, 0.1 mM EDTA, pH 7.2) with 0.4 mM TCEP and 0.2 mM Mg2+-ADP; column calibrated with a gel filtration standard

How did the relative ATPase activity (EnzChek phosphate release) of 6 µM His-MinD in the presence of 1, 3 and 5 µM His-PDZ, 0.2 mg/ml liposomes, 2 mM Mg2+-ATP; His-MinD alone = 1; highest value at 3 µM (relative activity) [1] turn out when “His-PDZ (soluble C-terminal PDZ domain of B. subtilis MinJ with N-terminal His-tag) (from UniProt O34375 1-397) (domain or fragment)” was run?
The relative ATPase activity (EnzChek phosphate release) of 6 µM His-MinD in the presence of 1, 3 and 5 µM His-PDZ, 0.2 mg/ml liposomes, 2 mM Mg2+-ATP; His-MinD alone = 1; highest value at 3 µM (relative activity) was 1.37.

B1: His-MinD (Bacillus subtilis subsp. subtilis str. 168) (protein)
chain: MGEAIVITSGKGGVGKTTTSANLGTALAILGKRVCLVDTDIGLRNLDVVMGLENRIIYDLVDVVEGRCKMHQALVKDKRFDDLLYLMPAAQTSDKTAVAPEQIKNMVQELKQEFDYVIIDCPAGIEQGYKNAVSGADKAIVVTTPEISAVRDADRIIGLLEQEENIEPPRLVVNRIRNHLMKNGDTMDIDEIVQHLSIDLLGIVADDDEVIKASNHGEPIAMDPKNRASIAYRNIARRILGESVPLQVLEEQNKGMMAKIKSFFGVRS
notes: full-length MinD, N-terminal His-tag kept (pET-28a NdeI/XhoI, plasmid NAP013), expressed in E. coli BL21(DE3)pLysS; monomer in ADP, dimerizes in ATPase cycle
Which Km [2] does the source give for B1 here?
Its Km is 0.173 mM.

What about the kcat [2] of the same molecule?
The kcat was 36.27 h⁻¹.

B2: His-MinD-D40A (enzyme, B. subtilis, UniProt Q01464 1-268, looked up)
chain: MGEAIVITSGKGGVGKTTTSANLGTALAILGKRVCLVDTAIGLRNLDVVMGLENRIIYDLVDVVEGRCKMHQALVKDKRFDDLLYLMPAAQTSDKTAVAPEQIKNMVQELKQEFDYVIIDCPAGIEQGYKNAVSGADKAIVVTTPEISAVRDADRIIGLLEQEENIEPPRLVVNRIRNHLMKNGDTMDIDEIVQHLSIDLLGIVADDDEVIKASNHGEPIAMDPKNRASIAYRNIARRILGESVPLQVLEEQNKGMMAKIKSFFGVRS
notes: MinD of Bacillus subtilis 168 with D40A, made by site-directed mutagenesis of plasmid NAP013 (pET-28a-minD); Same construct as m1 but for the mutation; also called locked dimer; pET-28a-minD-D40A; source: E. coli BL21(DE3)/pLysS, purified (Ni-NTA, SEC) with Mg2+-ADP in the buffers; not shown: His-tag, N-terminal, kept
Does B2 bind [3]?
Result: binds
